Columns and labels:
[1] = target: cell-expressed CD40 (UniProt P25942); experiment: cell binding on HEK-Blue-CD40L cells, Alexa-Fluor-488 anti-human IgG, high content imaging
[2] = target: recombinant CD40 protein (UniProt P25942); experiment: CD40L competition ELISA: antibody (5 µg/ml) preincubated with recombinant CD40 (1.7 µg/ml), complex added to coated CD40L, detected with anti-human F(ab)2-peroxidase; a high signal means no competition with CD40L (antibody and CD40L bound to CD40 together)
recombinant CD40 protein, sequence (P25942 21-193 limits assumed): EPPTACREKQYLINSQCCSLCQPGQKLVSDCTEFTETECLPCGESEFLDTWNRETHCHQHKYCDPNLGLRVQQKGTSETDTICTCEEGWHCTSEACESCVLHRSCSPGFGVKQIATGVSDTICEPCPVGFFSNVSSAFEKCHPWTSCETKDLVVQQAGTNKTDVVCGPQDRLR

cell-expressed CD40, sequence (P25942 21-277 limits assumed): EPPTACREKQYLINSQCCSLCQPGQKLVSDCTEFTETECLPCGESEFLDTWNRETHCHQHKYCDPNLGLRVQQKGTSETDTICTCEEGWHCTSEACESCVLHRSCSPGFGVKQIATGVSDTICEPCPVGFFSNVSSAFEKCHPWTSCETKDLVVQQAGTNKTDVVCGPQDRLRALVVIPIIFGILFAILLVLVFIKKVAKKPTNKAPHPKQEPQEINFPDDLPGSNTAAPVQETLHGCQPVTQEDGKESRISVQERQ

EC50 [1]: 0.0145 µg/mL | OD at 450 nm [2]: 2.54 OD
Substance: CP-870,893 IgG1-LALA (antibody)

Reference: patent US20240010741A1
